Data taken from article PMC12713080.

B1: HA‐TAK1 [human] / Flag‐TRAF2 [not stated] (parent)
chain 1: MSTASAASSSSSSSAGEMIEAPSQVLNFEEIDYKEIEVEEVVGRGAFGVVCKAKWRAKDVAIKQIESESERKAFIVELRQLSRVNHPNIVKLYGACLNPVCLVMEYAEGGSLYNVLHGAEPLPYYTAAHAMSWCLQCSQGVAYLHSMQPKALIHRDLKPPNLLLVAGGTVLKICDFGTACDIQTHMTNNKGSAAWMAPEVFEGSNYSEKCDVFSWGIILWEVITRRKPFDEIGGPAFRIMWAVHNGTRPPLIKNLPKPIESLMTRCWSKDPSQRPSMEEIVKIMTHLMRYFPGADEPLQYPCQYSDEGQSNSATSTGSFMDIASTNTSNKSDTNMEQVPATNDTIKRLESKLLKNQAKQQSESGRLSLGASRGSSVESLPPTSEGKRMSADMSEIEARIAATTAYSKPKRGHRKTASFGNILDVPEIVISGNGQPRRRSIQDLTVTGTEPGQVSSRSSSPSVRMITTSGPTSEKPTRSHPWTPDDSTDTNGSDNSIPMAYLTLDHQLQPLAPCPNSKESMAVFEQHCKMAQEYMKVQTEIALLLQRKQELVAELDQDEKDQQNTSRLVQEHKKLLDENKSLSTYYQQCKKQLEVIRSQQQKRQGTS
chain 2: MAAASVTPPGSLELLQPGFSKTLLGTKLEAKYLCSACRNVLRRPFQAQCGHRYCSFCLASILSSGPQNCAACVHEGIYEEGISILESSSAFPDNAARREVESLPAVCPSDGCTWKGTLKEYESCHEGRCPLMLTECPACKGLVRLGEKERHLEHECPERSLSCRHCRAPCCGADVKAHHEVCPKFPLTCDGCGKKKIPREKFQDHVKTCGKCRVPCRFHAIGCLETVEGEKQQEHEVQWLREHLAMLLSSVLEAKPLLGDQSHAGSELLQRCESLEKKTATFENIVCVLNREVERVAMTAEACSRQHRLDQDKIEALSSKVQQLERSIGLKDLAMADLEQKVLEMEASTYDGVFIWKISDFARKRQEAVAGRIPAIFSPAFYTSRYGYKMCLRIYLNGDGTGRGTHLSLFFVVMKGPNDALLRWPFNQKVTLMLLDQNNREHVIDAFRPDVTSSSFQRPVNDMNIASGCPLFCPVSKMEAKNSYVRDDAIFIKAIVDLTGL

Variants of: B1
Assay: co-immunoprecipitation (anti-HA beads), IB quantified
Conditions: with Flag‐TRAF2; HEK293T cells cotransfected; mean+/-SD, n = 3; read off a plot

response	Variant
0.25	chain 1 H154A M196A
